# Results published in paper doi:10.1101/2025.08.03.668247, “The structure of Egalitarian in complex with the K10 mRNA localization signal reveals a modular binding surface required for function”.
# T1: R782A (Drosophila melanogaster, UniProt Q9W1K4 512-819, R782A)
# T1 sequence: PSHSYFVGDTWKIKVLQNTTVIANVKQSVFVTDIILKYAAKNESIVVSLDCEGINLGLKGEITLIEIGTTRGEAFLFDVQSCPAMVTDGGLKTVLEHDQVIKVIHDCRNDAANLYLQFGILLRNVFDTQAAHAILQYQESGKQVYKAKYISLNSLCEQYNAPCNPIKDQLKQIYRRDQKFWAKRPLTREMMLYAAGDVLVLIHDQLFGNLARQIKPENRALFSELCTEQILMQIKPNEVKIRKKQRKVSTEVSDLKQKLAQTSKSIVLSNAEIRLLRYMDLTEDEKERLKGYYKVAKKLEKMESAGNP
# T2: K755A (Drosophila melanogaster, UniProt Q9W1K4 512-819, K755A)
# T2 sequence: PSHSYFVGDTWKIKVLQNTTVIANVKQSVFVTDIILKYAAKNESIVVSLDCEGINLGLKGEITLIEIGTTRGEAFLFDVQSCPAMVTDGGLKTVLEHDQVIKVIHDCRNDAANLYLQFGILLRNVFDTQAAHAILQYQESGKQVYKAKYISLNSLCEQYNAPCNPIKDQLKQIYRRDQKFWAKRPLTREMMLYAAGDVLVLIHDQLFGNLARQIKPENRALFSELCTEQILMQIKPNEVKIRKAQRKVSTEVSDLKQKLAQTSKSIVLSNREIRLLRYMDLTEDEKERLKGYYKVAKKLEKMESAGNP
# T3: K754A (Drosophila melanogaster, UniProt Q9W1K4 512-819, K754A)
# T3 sequence: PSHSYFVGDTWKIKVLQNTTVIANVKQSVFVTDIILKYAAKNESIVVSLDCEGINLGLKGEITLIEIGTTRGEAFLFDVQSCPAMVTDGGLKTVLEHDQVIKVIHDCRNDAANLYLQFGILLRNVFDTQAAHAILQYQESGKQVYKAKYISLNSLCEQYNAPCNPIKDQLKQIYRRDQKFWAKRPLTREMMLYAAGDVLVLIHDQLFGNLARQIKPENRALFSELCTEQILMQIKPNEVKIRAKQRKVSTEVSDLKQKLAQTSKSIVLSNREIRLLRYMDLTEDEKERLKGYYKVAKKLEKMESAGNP
# T4: K659E (Drosophila melanogaster, UniProt Q9W1K4 512-819, K659E)
# T4 sequence: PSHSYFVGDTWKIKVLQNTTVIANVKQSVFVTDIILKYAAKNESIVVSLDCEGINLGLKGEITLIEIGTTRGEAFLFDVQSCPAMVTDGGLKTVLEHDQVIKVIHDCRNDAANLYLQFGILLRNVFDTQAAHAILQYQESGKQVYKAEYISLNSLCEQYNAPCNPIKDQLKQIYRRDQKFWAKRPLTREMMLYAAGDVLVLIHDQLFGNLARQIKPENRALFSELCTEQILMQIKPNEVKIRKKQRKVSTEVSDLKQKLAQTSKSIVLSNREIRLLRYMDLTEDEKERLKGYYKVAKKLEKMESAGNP
# T5: K678A (Drosophila melanogaster, UniProt Q9W1K4 512-819, K678A)
# T5 sequence: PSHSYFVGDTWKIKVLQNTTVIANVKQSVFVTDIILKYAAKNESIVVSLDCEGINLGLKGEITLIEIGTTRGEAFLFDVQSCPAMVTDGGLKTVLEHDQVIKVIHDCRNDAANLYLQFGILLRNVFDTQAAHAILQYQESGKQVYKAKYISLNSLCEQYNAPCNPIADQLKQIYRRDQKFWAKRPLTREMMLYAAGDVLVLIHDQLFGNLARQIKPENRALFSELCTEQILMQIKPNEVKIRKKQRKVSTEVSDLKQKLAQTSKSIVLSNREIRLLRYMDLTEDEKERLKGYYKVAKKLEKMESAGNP
# T6: K751A (Drosophila melanogaster, UniProt Q9W1K4 512-819, K751A)
# T6 sequence: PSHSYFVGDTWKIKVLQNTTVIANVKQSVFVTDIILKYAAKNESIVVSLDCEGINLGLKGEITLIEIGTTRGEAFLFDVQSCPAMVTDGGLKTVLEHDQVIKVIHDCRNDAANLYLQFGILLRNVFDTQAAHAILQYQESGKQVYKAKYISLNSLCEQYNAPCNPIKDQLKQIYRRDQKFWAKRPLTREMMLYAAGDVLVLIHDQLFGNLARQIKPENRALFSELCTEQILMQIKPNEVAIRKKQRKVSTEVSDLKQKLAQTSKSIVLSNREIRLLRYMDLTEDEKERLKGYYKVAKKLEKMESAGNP
# Key:
# Assay in all cases: fluorescence anisotropy; FA: 20 mM HEPES-NaOH pH 7.5, 100 mM NaCl, 10% glycerol, 20 C, 10 nM FAM-RNA; competition: 150 nM Egl512-819 + 10 nM FAM-K10 TLS, same buffer
# Conditions in all cases: protein: recombinant; tags: N-terminal GST; label: 5'-6-FAM; hairpin with two bulges
# R782A = target: T1, R782A
# K755A = target: T2, K755A
# K754A = target: T3, K754A
# K659E = target: T4, K659E
# K678A = target: T5, K678A
# K751A = target: T6, K751A
binder,measurement,setting,value
CUUGAUUGUAUUUUUAAAUUAAUUCUUAAAAACUACAAAUUAAG (structured_RNA) [K10 TLS (FAM)],Kd,R782A,284 ± 13 nM
same,Kd,K755A,131 ± 5 nM
same,Kd,K754A,212 ± 8 nM
same,Kd,K659E,418 ± 40 nM
same,Kd,K678A,295 ± 8 nM
same,Kd,K751A,140 ± 10 nM
